Measurements reported in patent US6403087.

How the values were obtained:
[1] = target: surface TNF receptors on HT29 cells; assay: cell-based or functional assay
[2] = target: murine surface LT ligand on PMA-activated TIMI-4 cells (mouse) (UniProt P09225); assay: FACS on TIMI-4 cells; mAb at 30.0 µg/ml preincubated, washed, then 1 µg/ml mLT-β-R-Fc
[3] = target: murine surface LT ligand on PMA-activated TIMI-4 cells (mouse) (UniProt P09225); assay: FACS on TIMI-4 cells; mAb at 0.01 µg/ml preincubated, washed, then 1 µg/ml mLT-β-R-Fc
[4] = target: murine surface LT ligand on PMA-activated TIMI-4 cells (mouse) (UniProt P09225); assay: FACS on TIMI-4 cells; mAb at 0.03 µg/ml preincubated, washed, then 1 µg/ml mLT-β-R-Fc
[5] = target: murine surface LT ligand on PMA-activated TIMI-4 cells (mouse) (UniProt P09225); assay: FACS on TIMI-4 cells; mAb at 3.0 µg/ml preincubated, washed, then 1 µg/ml mLT-β-R-Fc
[6] = target: murine surface LT ligand on PMA-activated TIMI-4 cells (mouse) (UniProt P09225); assay: FACS on TIMI-4 cells; mAb at 1.0 µg/ml preincubated, washed, then 1 µg/ml mLT-β-R-Fc
[7] = target: murine surface LT ligand on PMA-activated TIMI-4 cells (mouse) (UniProt P09225); assay: FACS on TIMI-4 cells; mAb at 10.0 µg/ml preincubated, washed, then 1 µg/ml mLT-β-R-Fc
[8] = target: murine surface LT ligand on PMA-activated TIMI-4 cells (mouse) (UniProt P09225); assay: FACS on TIMI-4 cells; mAb at 0.3 µg/ml preincubated, washed, then 1 µg/ml mLT-β-R-Fc
[9] = target: murine surface LT ligand on PMA-activated TIMI-4 cells (mouse) (UniProt P09225); assay: FACS on TIMI-4 cells; mAb at 100.0 µg/ml preincubated, washed, then 1 µg/ml mLT-β-R-Fc
[10] = target: murine surface LT ligand on PMA-activated TIMI-4 cells (mouse) (UniProt P09225); assay: FACS on TIMI-4 cells; mAb at 0.1 µg/ml preincubated, washed, then 1 µg/ml mLT-β-R-Fc

murine surface LT ligand on PMA-activated TIMI-4 cells (mouse), sequence (P09225 34-202, chain 1 of 2): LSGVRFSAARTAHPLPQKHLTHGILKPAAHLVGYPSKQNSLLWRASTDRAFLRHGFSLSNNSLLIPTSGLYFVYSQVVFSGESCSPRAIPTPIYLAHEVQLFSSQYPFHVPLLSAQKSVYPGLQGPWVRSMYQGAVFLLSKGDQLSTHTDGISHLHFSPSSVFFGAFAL
murine surface LT ligand on PMA-activated TIMI-4 cells (mouse), sequence (P41155 whole entry, chain 2 of 2, further chain): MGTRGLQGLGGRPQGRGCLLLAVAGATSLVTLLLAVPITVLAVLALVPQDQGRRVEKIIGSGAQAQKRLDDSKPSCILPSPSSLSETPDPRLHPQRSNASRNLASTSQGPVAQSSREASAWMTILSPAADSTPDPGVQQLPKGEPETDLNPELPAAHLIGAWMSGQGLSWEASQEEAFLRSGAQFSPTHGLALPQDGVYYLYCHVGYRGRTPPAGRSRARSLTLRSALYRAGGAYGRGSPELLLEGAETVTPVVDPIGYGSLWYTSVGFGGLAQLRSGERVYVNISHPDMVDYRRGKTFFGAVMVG
hTNF, sequence (P01375 77-233 limits assumed): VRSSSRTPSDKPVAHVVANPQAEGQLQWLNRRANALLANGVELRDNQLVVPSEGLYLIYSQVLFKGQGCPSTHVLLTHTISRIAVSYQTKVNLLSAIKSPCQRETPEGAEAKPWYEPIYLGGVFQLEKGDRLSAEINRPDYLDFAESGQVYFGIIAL

% Inh (Percent Inhibition) of mLT-β-R-Fc binding [2] [%]	MFCI (Mean Fluorescence Channel No.) of bound mLT-β-R-Fc [2] [channel no.]	% Inh (Percent Inhibition) of mLT-β-R-Fc binding [3] [%]	MFCI (Mean Fluorescence Channel No.) of bound mLT-β-R-Fc [3] [channel no.]	% Inh (Percent Inhibition) of mLT-β-R-Fc binding [4] [%]	MFCI (Mean Fluorescence Channel No.) of bound mLT-β-R-Fc [4] [channel no.]	% Inh (Percent Inhibition) of mLT-β-R-Fc binding [5] [%]	MFCI (Mean Fluorescence Channel No.) of bound mLT-β-R-Fc [5] [channel no.]	% Inh (Percent Inhibition) of mLT-β-R-Fc binding [6] [%]	MFCI (Mean Fluorescence Channel No.) of bound mLT-β-R-Fc [6] [channel no.]	% Inh (Percent Inhibition) of mLT-β-R-Fc binding [7] [%]	MFCI (Mean Fluorescence Channel No.) of bound mLT-β-R-Fc [7] [channel no.]	% Inh (Percent Inhibition) of mLT-β-R-Fc binding [8] [%]	MFCI (Mean Fluorescence Channel No.) of bound mLT-β-R-Fc [8] [channel no.]	% Inh (Percent Inhibition) of mLT-β-R-Fc binding [9] [%]	MFCI (Mean Fluorescence Channel No.) of bound mLT-β-R-Fc [9] [channel no.]	% Inh (Percent Inhibition) of mLT-β-R-Fc binding [10] [%]	MFCI (Mean Fluorescence Channel No.) of bound mLT-β-R-Fc [10] [channel no.]	Substance	Concentration of Cytotoxic Agent (ng/ml) Resulting in 50% Growth Inhibition of HT29 cells, in the presence of 5 µg/ml hu-IgG control [1] [ng/mL]
																		hLT-α (from UniProt P01374 35-205) (ligand)	3
																		hTNF (from UniProt P01375 77-233) (ligand)	0.08
0	94	2	84	0	86	0	88	0	89	0	95	2	84	0	92	0	86	hamster anti-mLT-α mAb AF.B3 (antibody)	
95	10	18	71	23	67	86	17	71	29	94	11	62	36	98	8	44	51	hamster anti-mouse LT-α/β mAb BB.F6 (antibody)	
